This data set concerns the molecule itself. The data set is described as follows: cross-linking.

The record followed here is publication PMC1894825, “Transcriptional Regulation of Multi-Drug Tolerance and Antibiotic-Induced Responses by the Histone-Like Protein Lsr2 in M. tuberculosis” (PLoS Pathogens, 2007).

B1: recombinant Lsr2 (M. tuberculosis, Rv3597c) (natural protein)
chain: not shown
notes: also called rLsr2; not shown: His6, N-terminal, kept
As for B1, the binding result is “binds”.
